One may read the EC50 as the concentration needed to bring the measured effect to its halfway point.

The target of experiment [1] is T1, RSV A2 pre-F protein (respiratory syncytial virus (RSV) A2, UniProt P03420 26-513).
T1 construct: House-made by Vazyme; also called RSV 2A pre-F protein
Kind of experiment: ELISA, plate-coated RSV A2 pre-F, anti-human IgG Fc-HRP detection. In general terms: In an ELISA, binding on a coated surface is turned into a signal by an enzyme label.

Experiment [2] addresses T1, RSV A2 pre-F protein. Kind of experiment: ELISA, plate-coated RSV A2 pre-F, anti-human IgG Fc-HRP detection (2-fold dilutions from 1 ug/mL).

B1: F6-210 (antibody, V domains shown)
VH: QERLAQSGTEVKKPGASVKVSCRALGYTFSDYSIHWVRQAPRQGLEWMGKINTSGGTTTYAQKFQARVTLTSDTSTSTASMELSSLKIEDTAVYYCVAYERATTLAGAGASDIWGQGTLVTVSS
VL: DIVMTQSPLSLPVTPGEPASISCRSSQSLLHSDGYNYLDWYLQKPGQSPHLLIYLGSNRASGVPDRFSGSGSGTDFTLKITRVEPEDVGVYYCMQSLQTPFTFGPGTKVDVKR
notes: Human IgG1 expressed in CHO cells; heavy = VH + IgG1 constant region, light = VL + CL
B1: the EC50 in experiment [1] is 0.028 µg/mL.

B2: F6-63 (antibody, V domains shown)
VH: QVQVVESGGGVVEPGGSLSLSCAASGFSFKMHAMHWVRQAPGKGLEWVAFIPYDGSSQYYADSVKGRFTIYRDNFKNTLYLQMNSLRVEDTSLYYCARGGEEGAWSWIGYNSYMDVWGRGTAVTVSS
VL: QSALTQPASVSGSPGQSITISCSGTSSDVGGYDYVCWYQKHPGESPRLIIYDVSRRPSGVSNRFSGSKSGNTASLTISGLQAEDEADYSCSSYTSSNTLIFGGGTKLTVLG
notes: as for B1
In experiment [2], B2 registered an EC50 of 0.016 µg/mL.

The values above are taken from patent publication EP4631974A1 (Nanjing Vazyme Biotech Co., Ltd., dated 2025).
